{"source": "the RNAGym collection of RNA variant scans (doi:10.7554/elife.80360)", "parents": {"B1": {"name": "Hairpin Ribozyme (parent)", "chain": "GUCCUCUUUCACGUGCGCGUGAAAGAGAGAAGUGAACCAGAGAAACACACGUUGUGGUAUAUUACCUGGUA"}}}
{"variants_of": "B1", "experiment": "self-cleavage, relative activity (ratio to wild type); higher = more cleavage; co-transcriptional"}
{"variant": "C50G G56U", "self-cleavage": 0.124}
{"variant": "C50G G56C", "self-cleavage": 0.0923}
{"variant": "C50G G56A", "self-cleavage": 0.226}
{"variant": "G51A A64C", "self-cleavage": 0.173}
{"variant": "A49C U70G", "self-cleavage": 0.0833}
{"variant": "A49C U70A", "self-cleavage": 0.157}
{"variant": "A49C U70C", "self-cleavage": 0.0597}
{"variant": "C50U A61G", "self-cleavage": 0.199}
{"variant": "A49U G69U", "self-cleavage": 0.193}
{"variant": "A49U G69C", "self-cleavage": 0.139}
{"variant": "A49G C66U", "self-cleavage": 0.258}
{"variant": "C50G G57A", "self-cleavage": 0.0857}
{"variant": "C50G G57C", "self-cleavage": 0.181}
{"variant": "C50A A64U", "self-cleavage": 0.13}
{"variant": "C50A A64C", "self-cleavage": 0.124}
{"variant": "A49G G51C", "self-cleavage": 0.495}
{"variant": "A49G G51A", "self-cleavage": 0.651}
{"variant": "C50U G68A", "self-cleavage": 0.194}
{"variant": "A49G U63G", "self-cleavage": 0.158}
{"variant": "A49G G56A", "self-cleavage": 0.204}
{"variant": "A49U G51U", "self-cleavage": 0.135}
{"variant": "G51A A71C", "self-cleavage": 1.49}
{"variant": "G51C U58C", "self-cleavage": 0.905}
{"variant": "G51C U58G", "self-cleavage": 0.433}
{"variant": "A49U U63C", "self-cleavage": 0.172}
{"variant": "A49C U62A", "self-cleavage": 0.15}
{"variant": "G51A U63C", "self-cleavage": 0.109}
{"variant": "G51A U63A", "self-cleavage": 0.175}
{"variant": "C50A G69C", "self-cleavage": 0.12}
{"variant": "A49U G54C", "self-cleavage": 0.28}
{"variant": "C50A U53C", "self-cleavage": 0.296}
{"variant": "A49G G68U", "self-cleavage": 0.215}
{"variant": "C50A A71G", "self-cleavage": 0.253}
{"variant": "C50G A64G", "self-cleavage": 0.164}
{"variant": "A49G C50A", "self-cleavage": 0.249}
{"variant": "A49G C50U", "self-cleavage": 0.129}
{"variant": "G51C C65A", "self-cleavage": 0.857}
{"variant": "G51C C65U", "self-cleavage": 0.296}
{"variant": "C50A G54U", "self-cleavage": 0.97}
{"variant": "C50U U67C", "self-cleavage": 0.157}
{"variant": "C50G U63C", "self-cleavage": 0.114}
{"variant": "C50G U63A", "self-cleavage": 0.177}
{"variant": "A49U A61C", "self-cleavage": 0.0823}
{"variant": "G51C A61U", "self-cleavage": 0.196}
{"variant": "G51C A61G", "self-cleavage": 0.138}
{"variant": "G51C U63C", "self-cleavage": 0.1}
{"variant": "G51A U58A", "self-cleavage": 0.674}
{"variant": "C50A U63C", "self-cleavage": 0.198}
{"variant": "A49U U70G", "self-cleavage": 0.39}
{"variant": "C50G U53C", "self-cleavage": 0.327}
{"variant": "G51C U52G", "self-cleavage": 0.469}
{"variant": "G51C U52A", "self-cleavage": 0.761}
{"variant": "A49U A64U", "self-cleavage": 0.0352}
{"variant": "C50G U52A", "self-cleavage": 0.216}
{"variant": "G51A U60C", "self-cleavage": 0.944}
{"variant": "G51A U60A", "self-cleavage": 1.18}
{"variant": "G51A U60G", "self-cleavage": 0.672}
{"variant": "G51C U62C", "self-cleavage": 0.239}
{"variant": "G51C U67C", "self-cleavage": 0.182}
{"variant": "G51C U67G", "self-cleavage": 0.164}
{"variant": "A49G U58C", "self-cleavage": 0.532}
{"variant": "A49G U58G", "self-cleavage": 0.45}
{"variant": "C50U C66U", "self-cleavage": 0.159}
{"variant": "A49G U60G", "self-cleavage": 0.547}
{"variant": "C50A C66G", "self-cleavage": 0.217}
{"variant": "C50A C66U", "self-cleavage": 0.15}
{"variant": "G51C G56A", "self-cleavage": 0.197}
{"variant": "C50G", "self-cleavage": 0.275}
{"variant": "C50A", "self-cleavage": 0.283}
{"variant": "C50U", "self-cleavage": 0.396}
{"variant": "C50U U58C", "self-cleavage": 0.232}
{"variant": "C50U U58A", "self-cleavage": 0.194}
{"variant": "G51C G69U", "self-cleavage": 0.224}
{"variant": "G51C G69A", "self-cleavage": 0.336}
{"variant": "G51C A64U", "self-cleavage": 0.0968}
{"variant": "G51A G68A", "self-cleavage": 0.555}
{"variant": "G51A G68U", "self-cleavage": 0.474}
{"variant": "G51A G68C", "self-cleavage": 0.31}
{"variant": "A49G C65G", "self-cleavage": 0.184}
{"variant": "A49G C65U", "self-cleavage": 0.107}
{"variant": "A49U G68U", "self-cleavage": 0.128}
{"variant": "A49U G68C", "self-cleavage": 0.14}
{"variant": "C50A G51U", "self-cleavage": 0.399}
{"variant": "C50A A61C", "self-cleavage": 0.173}
{"variant": "C50G C66A", "self-cleavage": 0.193}
{"variant": "G51C A71U", "self-cleavage": 0.722}
{"variant": "C50G G68C", "self-cleavage": 0.0881}
{"variant": "G51A G69U", "self-cleavage": 0.439}
{"variant": "G51A G69A", "self-cleavage": 0.596}
{"variant": "C50A G68A", "self-cleavage": 0.143}
{"variant": "C50A G68U", "self-cleavage": 0.15}
{"variant": "C50A G68C", "self-cleavage": 0.178}
{"variant": "A49G U55G", "self-cleavage": 0.498}
{"variant": "A49G U55C", "self-cleavage": 1.17}
{"variant": "A49U U52A", "self-cleavage": 0.209}
{"variant": "C50U U62C", "self-cleavage": 0.0808}
{"variant": "C50U U62G", "self-cleavage": 0.158}
{"variant": "C50A G56C", "self-cleavage": 0.104}
{"variant": "C50A G56U", "self-cleavage": 0.274}
{"variant": "A49U U62G", "self-cleavage": 0.0483}
{"variant": "C50G U60G", "self-cleavage": 0.158}
{"variant": "C50G U60A", "self-cleavage": 0.268}
{"variant": "A49U G57U", "self-cleavage": 0.228}
{"variant": "A49U G57A", "self-cleavage": 0.192}
{"variant": "C50A G57A", "self-cleavage": 0.138}
{"variant": "A49C U63A", "self-cleavage": 0.0427}
{"variant": "A49C U63G", "self-cleavage": 0.153}
{"variant": "C50U U55G", "self-cleavage": 0.368}
{"variant": "G51A A61U", "self-cleavage": 0.192}
{"variant": "G51A A61G", "self-cleavage": 0.269}
{"variant": "G51C G57A", "self-cleavage": 0.147}
{"variant": "G51C G57U", "self-cleavage": 0.204}
{"variant": "C50U U60G", "self-cleavage": 0.205}
{"variant": "C50U U60C", "self-cleavage": 0.729}
{"variant": "C50G C65G", "self-cleavage": 0.161}
{"variant": "G51A U67G", "self-cleavage": 0.628}
{"variant": "G51C A59C", "self-cleavage": 0.14}
{"variant": "C50U C65U", "self-cleavage": 0.199}
{"variant": "C50G U62A", "self-cleavage": 0.213}
{"variant": "C50G U70G", "self-cleavage": 0.314}
{"variant": "A49G", "self-cleavage": 0.57}
{"variant": "A49U", "self-cleavage": 0.179}
{"variant": "A49U A59C", "self-cleavage": 0.179}
{"variant": "A49U A59U", "self-cleavage": 0.178}
{"variant": "C50A A59G", "self-cleavage": 0.0618}
{"variant": "C50A A59C", "self-cleavage": 0.167}
{"variant": "G51C U55A", "self-cleavage": 0.19}
{"variant": "A49U C65G", "self-cleavage": 0.171}
{"variant": "A49C U60A", "self-cleavage": 0.333}
{"variant": "A49C U60C", "self-cleavage": 0.165}
{"variant": "C50U U70G", "self-cleavage": 0.178}
{"variant": "C50U U70C", "self-cleavage": 0.34}
{"variant": "A49G U67A", "self-cleavage": 0.208}
{"variant": "C50A U67C", "self-cleavage": 0.0958}
{"variant": "C50A U67G", "self-cleavage": 0.118}
{"variant": "A49G A64G", "self-cleavage": 0.155}
{"variant": "A49G A64C", "self-cleavage": 0.248}
{"variant": "G51A A59U", "self-cleavage": 0.178}
{"variant": "G51A A59G", "self-cleavage": 0.25}
{"variant": "A49G G57A", "self-cleavage": 0.111}
{"variant": "A49G G57C", "self-cleavage": 0.0948}
{"variant": "G51C G68U", "self-cleavage": 0.227}
{"variant": "G51A U55G", "self-cleavage": 0.407}
{"variant": "G51A U55A", "self-cleavage": 0.34}
{"variant": "G51A U55C", "self-cleavage": 0.405}
{"variant": "A49G A61C", "self-cleavage": 0.0946}
{"variant": "A49U U60C", "self-cleavage": 0.331}
{"variant": "G51A G56C", "self-cleavage": 0.148}
{"variant": "C50U G56C", "self-cleavage": 0.19}
{"variant": "A49U A71G", "self-cleavage": 0.221}
{"variant": "A49U A71U", "self-cleavage": 0.146}
{"variant": "C50A U60A", "self-cleavage": 0.388}
{"variant": "C50U G54C", "self-cleavage": 0.534}
{"variant": "C50G G51U", "self-cleavage": 0.375}
{"variant": "C50G G51A", "self-cleavage": 0.249}
{"variant": "C50G A61U", "self-cleavage": 0.248}
{"variant": "C50G A61G", "self-cleavage": 0.175}
{"variant": "C50G A61C", "self-cleavage": 0.0643}
{"variant": "G51A C66G", "self-cleavage": 0.611}
{"variant": "G51A G57A", "self-cleavage": 0.142}
{"variant": "G51A G57C", "self-cleavage": 0.158}
{"variant": "A49U U55G", "self-cleavage": 0.366}
{"variant": "G51C G54C", "self-cleavage": 0.215}
{"variant": "G51C G54U", "self-cleavage": 0.404}
{"variant": "C50G A59U", "self-cleavage": 0.112}
{"variant": "C50G U55G", "self-cleavage": 0.368}
{"variant": "C50G U55A", "self-cleavage": 0.153}
